Reference: the DeepSol protein solubility set

assay: soluble on expression in E. coli; label from the status in PepcDB or PDB records

**Q.** Which “soluble on expression in E. coli” value does the source give for “MGSDKIHHHHHHMIFQLKGKFQHYPWGGRYFIPHFLKLTEVVDQPYAEYWLGAHPAASATIKFGEQWLPLADVIKQAPELLGERSRQQFGDNLPYLLKILDIKQPLSIQLHPNKAQAEYGFNQENRQGIPLEDVRRIYKDRNHKPEMMIALSDFWLLHGFKSITAIQACLAKYPSTSALAKSLVEKSLAVVYAEIMHADQTQLASWLRPIIEQRRADYLADKLKLSDPDYWLLYMTDDLAADAPLDAGLMCFYLFNIVHLKKGEGIYQAANLPHAYLRGQSIELMANSDNVIRGGLTTKWVDIPALLQAVDYRPVRPQIIAAYRDDKTVDQNFYLYPTPQAKDFALQRLTIRQLVENRFVTDSASMLLVMKGSLYIDLGNTSFHLNQGDAVFISADSHVELIGENDGYAIIASLP” here?
**A.** not soluble

**Q.** With “MGSDKIHHHHHHMIGQSLFIRGARGVTLTPSGERYFQDVTTILHNLMLATEKAADKSPKDSLYIHSSPSFGLLWLLPRLESFKEKFPMIQVNLSCSYENLHFTRDKIDIDIRHGLPNWTGVEIRTIRNEKLEVLASPKLLERSPVHKPQDLLKKELILSRSTLVTWPQWFAHQGLSIPEFPYTLSFDRSYMSLEAATHGLGFVLESNLLTQNYLESGKLVRVFADELSIPISAHHLVYPRTHQFIPKIELFLNWIHDELAG” as the sequence, how does the “soluble on expression in E. coli” value read?
**A.** not soluble

**Q.** For “MGSDKIHHHHHHMIIDINMHHLPEDLFTNEKILDGFLSTAPRSYGEIASLGTIPETGKRQIILEKPKGYQNLNYVEGDYSLEAKLQAMDDNGVDKAILRVPVWQEWLKVDTCKIVNDNAAEMCKRSAGRLYATACVPPWGGKDNLYELERCVKDLGMVGVQLACHYGQLYLDDEAFKPYMKVLNELNVPVVVHHTPLPVYWQSVYEYTNLRRELGRIIDQATAVGRELFSGMFEEFPNLKFIHTMFGGNWFANYNLLMPHKGKKEEAMLRLDISESDRIKMYLKNNIYFDMTHPASWGKDQVECAIKVCGADHVLFGSSFPVFYNWMSQGIECVKSLDITEKERELITSGNAIRLFKLDV”, which “soluble on expression in E. coli” value is on record?
**A.** not soluble

**Q.** For “MGSDKIHHHHHHMIILFGNQKGGCGKTTNCIQFANYLVEKGKEVLVLDLDFQRSLSDRRKEDIATYDNEPKYEVIQTDISNVAKIISDFTKVEQGNLLIDLPGKIDDDALGTILKAADIIICPFKYDKFTMDSTGFFIQVLQYLNVKAKIFFLPNNMRAAVRYETKEQVVDILKQVGFVTDEIPASVAMERINTLTISNECIDKVKNAYDYIIQEGAIK”, which “soluble on expression in E. coli” value is on record?
**A.** not soluble

**Q.** Which “soluble on expression in E. coli” value does the source give for “MGSDKIHHHHHHMIKALLTVSTILVSSHALATDKPADKPWHNEKPTLSTINAPTKVMPMVCKQTQALAYLKELQSGKKDIYSVKSNDHGGKGANDSGWLTWRVDDPTNLIPCPKGGAADTEVGMCWKELNDEPTVIGLVRVAPGTAAPHYHREMECYYGLSGQGLTWAQERMQPFGAGDYIEIPSKAIHYTPNTYDDQDLIYMYWFPLDGKFSTFKYQWPKDVGPGEQLMFDFVPYTNSKTVRSGNDGYGWDVIQKSKK” here?
**A.** not soluble

**Q.** Which “soluble on expression in E. coli” value does the source give for “MGSDKIHHHHHHMIKCIAVDDEPLALEQLTGYIARVPFLQLIASCQDAFSAMQVLSEEEVDLMFVDIHMPDLNGLDLVRSLVVKPLIVFTTAYPEYAVEGFKVDAVDYLLKPFEFQDLLKAADKARRQFEYHLQDNGGGTETDLLEKDGSLFVKSEYKIIRINVADICYIEGMSEYVRIYTDTADKPVVTLLSMRKLEERLPQEMFMRVHRSYIVNLRKITEVSRLRIIFNKNIYIPVGDNYKERFTEYINKICVSS” here?
**A.** not soluble

**Q.** With “MGSDKIHHHHHHMIKKSDYPRYIQMLKRRPEFSGFTPDEFNQLEQQMRIKEYPKGQLLFDQADTRSRFYFVISGLLRSERIDETGDFSFYSFIAENKGFPYRGLFHDHEYAYAVNTMTPAVVASFPMAEFENLLTRNSEMMKRVVVEMGQIINENEDQLQQMVTSSASDRVRNALKILGRKLGNQLAGDRWFVPYAITLIELAKMAGTTRETASQVVQRLEADGQIIYEHKHFTIFIK” as the sequence, how does the “soluble on expression in E. coli” value read?
**A.** not soluble

**Q.** For “MGSDKIHHHHHHMIKNLSKAKSTSKTSSTTSETLTPANYYDRWTDQSFMSATWFKKFLACEAEALAELTGKWQPVRDAKALVVGNWLHSYFESKQAHEKFKDEHPESISKRGPTKGQLKSDFKVANAMIQSLTNDHDFNLLYQGDKEVIVTGEIGGYPWKGKIDCLNLKQGYFVDLKTTADIYKVYWNPETREKESFVYAYNYPLQMAVYQELIKQQFGVTCKPYIVAVSKQDPPDKQAIDLPEYRLTNAMNQVLESQQHLQDIIKGEADPIQCGHCAYCRSTKKLESVVSADDLLID”, which “soluble on expression in E. coli” value is on record?
**A.** not soluble

**Q.** Which “soluble on expression in E. coli” value does the source give for “MGSDKIHHHHHHMILKFVIRMGLTISEKIEEIMSSNESNTTLYNISSLEHLHAIFRAYRPHNGFGVVYRGQADCHWKLLPKAGRQEYLLPDDRDLGVFKDWLDRAIAYENVPNYFIEQLALAQHHGLATRLLDWTINPLIACYFACCSYPDKDGVIYILELPKTFATVDLSMETLKECSEVISYRPRQFSPRILNQGGIFTIHNPPDTTIDIGPGRIALDMPNLVQIILGKNLKHDILEMLSDYGIDERYIYPDLDGLSRSLNHSMMRMVRQRVERIDL” here?
**A.** not soluble

**Q.** For “MGSDKIHHHHHHMILLNYSQCFCLHNESRQKIAPSCWLNIGVHYMRIQQLRDLLEYVANCRLDMAQLYGRLNNQADSARVKMMLEYFESHQKHVAEKLRDYMDEAPVRVLDTWYKDFVFEDFTKRCQDTMLPANMNEDDVLNLHLDLENRLIGLLEKTVNSTTAEDARTALEGLIRVEKIQQQRLVHSTIRMDDI”, which “soluble on expression in E. coli” value is on record?
**A.** not soluble

**Q.** Which “soluble on expression in E. coli” value does the source give for “MGSDKIHHHHHHMILPDRKQILDRELIRRIADTTISGSGHSDGLSEYASIRKAAFAFVESAVLGDQAYSPIENAELAFIVWILAALDENIITARTIIKARDTVYYYLRLVEHYEDLEEFGSRLGIEISVFGEQIGKDHLYRIGVADFATYASRVTGSKYRLSNQIVREGYVYVDEDVMAKVLREAFVSFMFDTLDQIRYYDAIETIKSVLDDLEKIRESYRKAHNVRMIAGKGDASMFPPCMKEIIKNLESGVNVSHMGRLALASFLHKAGYSEDEIVPYFRNAPDFDENITRYQIKHISGEISGTEYTPPKCETMRSNHLCYMDDDPLCHREWMKHPLTYYEVKRRNRKIR” here?
**A.** not soluble

**Q.** Which “soluble on expression in E. coli” value does the source give for “MGSDKIHHHHHHMINQLMRSVDNLPAFPVTVIKVMDLLSRDDYSIAEVARVISFDQSITANILKVSNSAYFSFGRPIRTVLEAVARLGKENVIRAVQTAGISKFYKTTARGYVSVAADLWEHSVAVALMSQILSRRIYGREDSVLYSAALLHDVGKIIIGAYVYESLEKIQRVVDGRKCSFIEAEEEVIGINHAELGGKITGYWNLPEEICDAIAFHHRPDILDKNSVDMQWIVYLADQLCMMTGIGNGIDGLAYLGISEVLKKFNLREKDLETNMMNLMDDLRNARSILDMV” here?
**A.** not soluble

**Q.** With “MGSDKIHHHHHHMIPISLIQETAEGLMDKAAIEIPQDYLDGLQEAARTEDGDLSSFVLKAMLDNYEAAKEDRRAMCGDTGVPRWFVKMGNDASVEGGMVALEAALRRATANATNGVPLRPNRVHPLWRTDHNNNVGIGAPEIEYGFEPEGEWIDLITVHKGGLFGTDYRMLFPSDGLQGIKRFYLDSLMAFGKRGLACQPAIIGIGLGGSKDICMTLGKRASTLRVVGSRNSDPRIAEMEDEFKALGNSIGMGAMGFVGKNMVIDCNIEVGYCHTGGLPMSVHAFCLSSRRAVARIHADGRVEHRTDPDWFTDYQRRETIDWPLAQEAAE” as the sequence, how does the “soluble on expression in E. coli” value read?
**A.** not soluble

**Q.** For “MGSDKIHHHHHHMIPTFVVWSQSMFNDAIVYDRYGPPAAVLTLKRLPLAPLAGGRVRVRMRFAPVNPSDLIPVTGAYRHRTRLPAVAGYEGLGEVVAAPYGSRLAAGQRVLPLRGGGTWQRFIDLDETWLVPVPPAVDDLLAARGYINPLTAMLMLKRWPVAGKHLVLTAASSSCASLLGQWALAMGARSVSGIIRSPQHRARLEQAGIYPILDTDRALMEKVSQHSDLVFDAVGGELANTLLSVLPGSSTLISYGLLSGRPLTQTRGSATVRKFHLREALPTLSVAAWRAAFDEIWQRLPTTSQPPAQRIALNDWRAAIAAAGQPGRGGKILLDFTAG”, which “soluble on expression in E. coli” value is on record?
**A.** not soluble

**Q.** Which “soluble on expression in E. coli” value does the source give for “MGSDKIHHHHHHMIQIGKRYSLEVVKQVNFGVYLNAQELGQVLLPNKFVPTGCNVGDMVDVFLYLDSEDIVIATTQKSLAQVGEYAYLKVIATGPFGAFLDWGLDKDLLLPFGEQHKPAEEGHSYLVYVHANHADERIMASSKLDKFVDKTEAHYTEGEQVNLIIGGTTELGYKAIINNLHWGVIYANEVFQKLRFGQKVTGYIKTMRSDGKIDLVLQKGDKDELDKNARLIINKLRSANGFLPLHDKTDADVIYDKLGMSKKAFKKSIGGLFKAGEITIESEGIRLTV” here?
**A.** not soluble

**Q.** With “MGSDKIHHHHHHMIRANRHKRVIAVCGKGGVGKTAFTAMLTRSLLESQKAGDLLVIDADPAMGLPNTLGIQVEKTIGHVRDLIINTARAGIGEDRVDLSSRLDYLVLETLYESDDYAFLAMGRTDSQGCFCSVNDLLKKSIRILSERFDTIVIDGEAGLEQMNRQVMNMVDLLIILSDTSTRGLQTVEHITKMVTEDHVIDCTQLGVVFNRVINNELLLTQAAERIGIEVFGMVPQDQSIVHYDLIGQPLTELPADSLALSAIRDFVANHIVQLDCR” as the sequence, how does the “soluble on expression in E. coli” value read?
**A.** not soluble

**Q.** For “MGSDKIHHHHHHMIRDARVLRAGFVPREVEHRDAEVNHLSSVLEPITNGEPADTAIVTGPSGAGKTCISQFVTERLREEVLDVETTYVNCWRNYTRFRTLYQILDDLGATIDIHRQSTPHDELVDRLQQHDGPRTVVILDEVDQLEDPSVIYDLHSLPQFAIICIANKEEELFSRVDDRLVSRLRSSEHVRMDKYHDEQLYDILSARAKWGLDEDVITDDQLYRIADAAAGDARLAIGILRTAAGKADRENHERITDDILLNAAEDARAQIKQKSLDSLTPHQRVVYDIVREHGPIGPSEIHERYSEDVDDPRTKRTIRTYLSKMEQYNLLEAEGTSRDREYSLVDSAAASPMQ”, which “soluble on expression in E. coli” value is on record?
**A.** not soluble

**Q.** For “MGSDKIHHHHHHMIRGLRQIEPYVAGVQPAERKMIKLNTNENAYGASPKVREALANFDVDNLRKYSTLEQADLRAALANNLKVKPEQLMIANGSDDVLSIAFLAFFNNDEPVLFPDLTYGFYKVWADLYRVNYHEIPLAEDFTINTEDYLADNGGIILTNPNAPTGIYKPLNEIEKLLKANQDTVVIIDEAYISFGGQSALSLLNKYNNLVITRTFSKDAALAGLRVGYAIANEPLIAVMNAVKHSINPYSVDLLAERLATAAVEDWSYYQENAKKIQKTRAWFSEQLVKQGFDVLPSQANFVLTKPHDLATAKLFEELEARKIYVRYFPKVERIKDYLRISMGTQEEMEEVVKAIEEIRG”, which “soluble on expression in E. coli” value is on record?
**A.** not soluble

**Q.** Which “soluble on expression in E. coli” value does the source give for “MGSDKIHHHHHHMIRIANGQGFWGDWLEAPVRLVEQGPLDYLALDYLAEVTMSILQKQKQADPKLGYARDFPPLIARIAEQIRERGVTVIANAGGVNPVACAREVVRLAPGLKVAVVLGDDVYPRLDSFLAKGYEMRDMDTGEPIAAIRDRIQSANAYIGAFPLAEALGTGANVVIAGRSTDTALALAPMVHRFGWGPDAFDRLAAGTIAGHIIECGAQCTGGNCQVDWESIPDMANIGYPIVEAEPDGSFVVTKHPAAGGRVSLDSVKEQLLYELGDPQRYITPDCIADFTSVRLAADGPDRVRVTDIRGGPRPPSLKLSISYANGWKAVGTLVYSWPQALAKARAADRIVRERLRNLGLSFEEIHTEFFGVSACHGALAPPNPDPPEVQLRIGVRGQDKKAVDRFTRELIPLVLNGPPGATGFGEGRPPVREIVAYWSTLVPREEIDTRVEVVE” here?
**A.** not soluble

**Q.** For “MGSDKIHHHHHHMIRILMGSYGSGKTEISINLALKLKSSGKDVSLVDLDVVTPYFRLRDLKKKLEELGIHVVTVGDNLRYSDLPIIPKNTDWLSSEEAVIDTGGEDGAKAVGALRHLMNGKNTHTYFVVNAFRPFCERPEDIIENLKKISTLSKMKIDFLINNSNLGDMTTAEVVLEGERIVSEVSRKTGIKVLFTVVPEELIDPPETDYPLFSIRRFMKRKLGIGGMRT”, which “soluble on expression in E. coli” value is on record?
**A.** not soluble
